In the assay the test system is tracheobronchial secretion in rats. Description: Mucolytic activity in rats: tracheobronchial secretion of fluorescein sodium (FINa). Conditions: for Percentage (%) Enhancement of FINa secretion compared to Normal: versus normal group (G1). It is filed as in vivo, rat (Swiss Albino Rats). The protocol: The effect of the compositions of the present invention was studied in animals. For this study, screening effect of synergistic combination of compositions/formulations comprising N-Acetyl-L-Cysteine, Lactoferrin and additional active ingredients for mucolytic activity in rat was performed. The following trials were carried out:
Eighty-Four (84) rats including male and female (Swiss Albino Rats) divided into 14 groups (6 per group) were maintained in animal house in a light/dark atmosphere based on a 12 hour cycle having temperature and relative humidity in the range of 19 to 25±2° C. and 30-70%, respectively. To maintain the appropriate conditions, temperature and relative humidity were recorded three times daily. All animals were acclimatized for a minimum period of five days. Animals were maintained in the test setup for minimum 30 minutes once during the acclimatization period to reduce the stress. Animals were weighed on the day of receipt and observed daily for abnormalities if any. Detailed records of acclimatization were also maintained. Rats were housed 3 per cage in clean, sterilized Polypropylene cages. During complete experiments, animals were supplied with the standard certified rat pellet feed and drinking water treated by reverse osmosis ad libitum.
In order to evaluate the mucolytic activity in rats, eighty-four (84) rats were screened and divided into Fourteen (14) groups. For a comparative analysis, groups were divided and treated as below:
Tracheobronchial secretion in rats, expressed by the amount of fluorescein sodium (FINa) dye excreted into the respiratory tract, was measured by modification of methods published earlier.
Lactoferrin, Carotenoid, N-Acetyl-L-Cysteine or their combinations (G4-G14) were suspended in 1% Acacia. […]
The tracheobronchial lavage fluid (4.9±0.1 ml) was centrifuged (3500 rpm for 10 minutes) and the supernatant was transferred to STP B & L tubes. The fluorescence intensity of the supernatant was measured with a Genesys 20 spectrophotometer set at a wavelength of 510 nm (emission).

The record followed here is patent US12508302B2, “Pharmaceutical composition providing mucolytic effect” (FRIMLINE PRIVATE LIMITED, priority 2022, dated 2025).

B1: Lactoferrin (protein, UniProt P02788 20-710, looked up)
Lactotransferrin: GRRRSVQWCAVSQPEATKCFQWQRNMRKVRGPPVSCIKRDSPIQCIQAIAENRADAVTLDGGFIYEAGLAPYKLRPVAAEVYGTERQPRTHYYAVAVVKKGGSFQLNELQGLKSCHTGLRRTAGWNVPIGTLRPFLNWTGPPEPIEAAVARFFSASCVPGADKGQFPNLCRLCAGTGENKCAFSSQEPYFSYSGAFKCLRDGAGDVAFIRESTVFEDLSDEAERDEYELLCPDNTRKPVDKFKDCHLARVPSHAVVARSVNGKEDAIWNLLRQAQEKFGKDKSPKFQLFGSPSGQKDLLFKDSAIGFSRVPPRIDSGLYLGSGYFTAIQNLRKSEEEVAARRARVVWCAVGEQELRKCNQWSGLSEGSVTCSSASTTEDCIALVLKGEADAMSLDGGYVYTAGKCGLVPVLAENYKSQQSSDPDPNCVDRPVEGYLAVAVVRRSDTSLTWNSVKGKKSCHTAVDRTAGWNIPMGLLFNQTGSCKFDEYFSQSCAPGSDPRSNLCALCIGDEQGENKCVPNSNERYYGYTGAFRCLAENAGDVAFVKDVTVLQNTDGNNNEAWAKDLKLADFALLCLDGKRKPVTEARSCHLAMAPNHAVVSRMDKVERLKQVLLHQQAKFGRNGSDCPDKFCLFQSETKNLLFNDNTECLARLHGKTTYEKYLGPQYVAGITNLKKCSTSPLLEACEFLRK
notes: multifunctional globular glycoprotein of the transferrin family, molecular mass about 80 kDa
Regarding B1, the “Fluorescein Sodium (FINa) Secretion” value (dosed 30 minutes before i.v. FINa 300 mg/kg, tracheobronchial lavage one hour after administration, doses as Table 1, mean±SEM) is reported as 1.79 ± 0.04 μg/100 g/h. The “Percentage (%) Enhancement of FINa secretion compared to Normal” value (doses as Table 1) is 25.17 ± 1% and the “Percentage (%) Enhancement of FINa secretion compared to Normal” value (doses as Table 1, listed as Lactoferrin) was found to be 25.17%.
